Experimental data from patent US8129592B2, “Plant isoflavonoid hydroxylases and methods of use thereof” (The Samuel Roberts Noble Foundation, Inc., priority 2003, dated 2012).

What was measured:
[1] = substrate: COc1ccc(-c2coc3cc(O)ccc3c2=O)cc1; assay: Hydroxylase assay with yeast microsomes expressing recombinant MtCYP81E9 (I3′H); assay type: biochemical, Medicago truncatula; settings: other: 2 mM NADPH and pH 8.0, 25.0 °C
Protocol: (§1) After induction with 20% galactose for ˜18 h, yeast cells was harvested, weighed, and immediately processed for microsomal fractionation.
(§2) After incubation at ˜80 rpm for 30 to 40 min, spheroplasts were centrifuged down for 5 min, washed twice with Zymolyase buffer B, and then twice with phosphate buffer A (0.1 M potassium phosphate pH 8.0, 1 M sorbitol, 14 mM 2-mercaptoethanol). The spheroplasts were re-suspended in a minimum vol of phosphate buffer B (0.1 M potassium phosphate pH 8.0, 0.4 M sucrose, 14 mM β-mercaptoethanol, 1 mM PMSF and 1× protein inhibitor cocktail (Roche Diagnostics GmbH, Mannheim, German), and 1 vol of glass beads (diameter at 0.45/0.50 mm) was added. Samples were vigorously vortexed at 4° C., with the quality of cell disruption checked under the microscope. The supernatant was then removed and the beads washed four times with phosphate buffer B. Supernatants were pooled and centrifuged at 12,000 g for 10 min; the resulting supernatant was then ultracentrifuged at 140,000 g for 90 min. The supernatant was discarded and the pellet washed briefly with phosphate buffer C (0.1 M potassium phosphate, pH 8.0, 0.4 M sucrose, 0.5 mM glutathione), and re-suspended in the same buffer plus 5% glycerol at about 12 mg total protein/ml. Protein was quantified using a Bio-Rad protein assay kit (Bio-Rad, Hercules, Calif.).
(§3) Hydroxylase assays were performed in phosphate buffer C in a total volume of 150 μl containing 2 mM NADPH, 40 μM isoflavone substrate and 40˜70 pmol P450 protein. Reactions were incubated at 25° C. for 1.5 h (over which period the reactions were linear) with gentle shaking and stopped by extracting twice with 500 μl of ethyl acetate. The extracts were combined, evaporated under N2, re-suspended in 60 μl of methanol, and analyzed by HPLC or LC-MS. All assays to determine enzyme specificity were carried out in duplicate. For kinetic studies, the isoflavone concentration was varied at a fixed concentration of NADPH (2 mM), and kinetic constants calculated from initial rate data using Lineweaver-Burke double reciprocal plots. All kinetic analyses were carried out in triplicate.
(§4) Reaction products from enzyme assays (30 μl) were analyzed by HPLC.
(§5) Product identification was firstly based on comparisons of chromatographic behavior and UV spectra with authentic standards. Identifications were then confirmed by HPLC-MS, using a HP 1100 liquid chromatograph coupled to a Bruker Esquire Ion-Trap mass spectrometer equipped with an electrospray source. HPLC separation was achieved using a J. T. Baker Bakerbond reverse-phase column (C18, 5 μm, 4.6 mm×250 mm, J. T. Baker, Philipsberg, N.J.). […] Mass spectra were recorded over a range of 50-2200 m/z.

[2] = substrate: COc1ccc(-c2coc3cc(O)cc(O)c3c2=O)cc1; assay: as above; assay type: biochemical, Medicago truncatula; settings: other: 2 mM NADPH and pH 8.0, 25.0 °C
Protocol: as §1, §2, §3, §4, §5

B1: I3′H (MtCYP81E9) (Medicago truncatula) (protein)
chain: MTLFYYSLLSLSFIITIKILLKITSRRLKNLPPGPPTIPIIGNLHHLKHPLHRTFTTLSQTYGDIFSLWFGSRLVVVVSSPSLAHECFTKNDIILANRPRFLTGKYIFYNYTTLGSASYGDHWRNLRRITTIDVLSNNRLNSFLGVRRDETNRLIQKLLKDVVSEGFGFTKVELRPRLTEMTFNAMMRMISGKRYYGDDGDVSDVEEAKQFREIISEMMSLLGANNKGDFLPLLRVVDLDNLEKRCKRIAKRSNAFLEGLIEEHRRGNIHSDGGTMIDHLLKLSESQPEYYSDHLIKGLIQGMLLAGTDTSAVTIEWVMSELLNHPEVLKKAKEELDTQIGKNKLVDEQDLSKLPYLQNIISETLRLHPPAPLLLPHYSSEDCTIGEFNVPKDTIILTNVWGIHRDPKHWNDALSFKPERFEKEEEVNKVMAFGLGRRACPGLSLAQRTVGFTVGLLIQCFEWERESEEKLDMMEGKGITMPMKIPLRAMCKALPIANDVTK
notes: made in house; host or cells: Saccharomyces cerevisiae WAT11, vector YeDP60; microsomal fraction
Q: What does the source list for B1?
A: Km [1]: 49.7 µM; kcat [1]: 0.028 s⁻¹; Km [2]: 112.6 µM; kcat [2]: 0.1 s⁻¹
